Series [1] deals with HeLa Kyoto. Put plainly: solubility in G1/S (NP-40 vs SDS abundance) (log2 ratio); higher = more soluble. As to conditions: cell cycle stage: G1/S.
Series [2] concerns HeLa Kyoto. As to the kind of experiment: melting temperature (median over replicates), in situ; higher = more thermally stable.
The test system of series [3] is HeLa Kyoto. Put plainly: solubility change mitosis vs G1/S (difference of NP-40 vs SDS log2 ratios) (log2 ratio difference); higher = more soluble in mitosis.
For series [4], the system named is HeLa Kyoto. As to the kind of experiment: thermal stability score vs G1/S (z-score of summed log2 fold changes over temperatures); higher = more thermally stable than in G1/S.
Where [5] appears, read: cell cycle stage: early G1 (4.5 h after nocodazole release).
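Throughout, for melting temperature (median over replicates), in situ: HeLa Kyoto cells synchronized by double thymidine or nocodazole block, proteins quantified by TMT10plex mass spectrometry, three independent biological replicates.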
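Throughout, for solubility change mitosis vs G1/S (difference of NP-40 vs SDS log2 ratios): synchronized HeLa Kyoto cells (double thymidine block for G1/S, nocodazole release for mitosis), protein amounts in NP-40 versus SDS lysates quantified by mass spectrometry, three biological replicates.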
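Throughout, for solubility in G1/S (NP-40 vs SDS abundance): HeLa Kyoto cells arrested at G1/S by double thymidine block, proteins quantified by TMT10plex mass spectrometry in mild NP-40 versus SDS extracts, three biological replicates.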
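Throughout, for thermal stability score vs G1/S (z-score of summed log2 fold changes over temperatures): synchronized HeLa Kyoto cells, proteins quantified by TMT10plex mass spectrometry, three biological replicates, mitosis taken 0.5 h after nocodazole release, G1/S directly after double thymidine block.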

Consider “MAPQNLSTFCLLLLYLIGAVIAGRDFYKILGVPRSASIKDIKKAYRKLALQLHPDRNPDDPQAQEKFQDLGAAYEVLSDSEKRKQYDTYGEEGLKDGHQSSHGDIFSHFFGDFGFMFGGTPRQQDRNIPRGSDIIVDLEVTLEEVYAGNFVEVVRNKPVARQAPGKRKCNCRQEMRTTQLGPGRFQMTQEVVCDECPNVKLVNEERTLEVEIEPGVRDGMEYPFIGEGEPHVDGEPGDLRFRIKVVKHPIFERRGDDLYTNVTISLVESLVGFEMDITHLDGHKVHISRDKITRPGAKLWKKGEGLPNFDNNNIKGSLIITFDVDFPKEQLTEEAREGIKQLLKQGSVQKVYNGLQGY [DNAJB11]”, for which the “solubility in G1/S (log2)” value in the series with HeLa Kyoto [1] amounted to 0.337. In addition, the melting temperature with HeLa Kyoto [2] (cell cycle stage: G1/S) amounted to 54.7 °C; with HeLa Kyoto [2] (cell cycle stage: mitosis), 55 °C. Besides, the “solubility change mitosis (log2)” value with HeLa Kyoto [3] is -0.0195. The thermal stability score in the series with HeLa Kyoto [4] (setting [5]) amounted to 3; in the series on HeLa Kyoto [4] (cell cycle stage: mitosis), 0.842.

With “MAPRLQLEKAAWRWAETVRPEEVSQEHIETAYRIWLEPCIRGVCRRNCKGNPNCLVGIGEHIWLGEIDENSFHNIDDPNCERRKKNSFVGLTNLGATCYVNTFLQVWFLNLELRQALYLCPSTCSDYMLGDGIQEEKDYEPQTICEHLQYLFALLQNSNRRYIDPSGFVKALGLDTGQQQDAQEFSKLFMSLLEDTLSKQKNPDVRNIVQQQFCGEYAYVTVCNQCGRESKLLSKFYELELNIQGHKQLTDCISEFLKEEKLEGDNRYFCENCQSKQNATRKIRLLSLPCTLNLQLMRFVFDRQTGHKKKLNTYIGFSEILDMEPYVEHKGGSYVYELSAVLIHRGVSAYSGHYIAHVKDPQSGEWYKFNDEDIEKMEGKKLQLGIEEDLAEPSKSQTRKPKCGKGTHCSRNAYMLVYRLQTQEKPNTTVQVPAFLQELVDRDNSKFEEWCIEMAEMRKQSVDKGKAKHEEVKELYQRLPAGAEPYEFVSLEWLQKWLDESTPTKPIDNHACLCSHDKLHPDKISIMKRISEYAADIFYSRYGGGPRLTVKALCKECVVERCRILRLKNQLNEDYKTVNNLLKAAVKGSDGFWVGKSSLRSWRQLALEQLDEQDGDAEQSNGKMNGSTLNKDESKEERKEEEELNFNEDILCPHGELCISENERRLVSKEAWSKLQQYFPKAPEFPSYKECCSQCKILEREGEENEALHKMIANEQKTSLPNLFQDKNRPCLSNWPEDTDVLYIVSQFFVEEWRKFVRKPTRCSPVSSVGNSALLCPHGGLMFTFASMTKEDSKLIALIWPSEWQMIQKLFVVDHVIKITRIEVGDVNPSETQYISEPKLCPECREGLLCQQQRDLREYTQATIYVHKVVDNKKVMKDSAPELNVSSSETEEDKEEAKPDGEKDPDFNQSNGGTKRQKISHQNYIAYQKQVIRRSMRHRKVRGEKALLVSANQTLKELKIQIMHAFSVAPFDQNLSIDGKILSDDCATLGTLGVIPESVILLKADEPIADYAAMDDVMQVCMPEEGFKGTGLLGH [USP48]”, the “solubility in G1/S (log2)” value in the series on HeLa Kyoto [1] is -0.074. Also, the figures for the melting temperature in the series with HeLa Kyoto [2] (cell cycle stage: G1/S) and in the series with HeLa Kyoto [2] (cell cycle stage: mitosis) were 47.4 °C and 49.1 °C, respectively. In the series with HeLa Kyoto [3], the “solubility change mitosis (log2)” value is -0.183. The thermal stability score in the series with HeLa Kyoto [4] (setting [5]) is 1.52; in the series on HeLa Kyoto [4] (cell cycle stage: mitosis) it was 2.6.

Turning to “MAPSTPLLTVRGSEGLYMVNGPPHFTESTVFPRESGKNCKVCIFSKDGTLFAWGNGEKVNIISVTNKGLLHSFDLLKAVCLEFSPKNTVLATWQPYTTSKDGTAGIPNLQLYDVKTGTCLKSFIQKKMQNWCPSWSEDETLCARNVNNEVHFFENNNFNTIANKLHLQKINDFVLSPGPQPYKVAVYVPGSKGAPSFVRLYQYPNFAGPHAALANKSFFKADKVTMLWNKKATAVLVIASTDVDKTGASYYGEQTLHYIATNGESAVVQLPKNGPIYDVVWNSSSTEFCAVYGFMPAKATIFNLKCDPVFDFGTGPRNAAYYSPHGHILVLAGFGNLRGQMEVWDVKNYKLISKPVASDSTYFAWCPDGEHILTATCAPRLRVNNGYKIWHYTGSILHKYDVPSNAELWQVSWQPFLDGIFPAKTITYQAVPSEVPNEEPKVATAYRPPALRNKPITNSKLHEEEPPQNMKPQSGNDKPLSKTALKNQRKHEAKKAAKQEARSDKSPDLAPTPAPQSTPRNTVSQSISGDPEIDKKIKNLKKKLKAIEQLKEQAATGKQLEKNQLEKIQKETALLQELEDLELGI [EIF2A]”, in the series on HeLa Kyoto [1], the “solubility in G1/S (log2)” value came to 0.224. Further, the results for the melting temperature with HeLa Kyoto [2] (cell cycle stage: G1/S) and in the series on HeLa Kyoto [2] (cell cycle stage: mitosis) were 52.1 °C and 51.7 °C, respectively. Further, the “solubility change mitosis (log2)” value in the series with HeLa Kyoto [3] was -0.121. For the same sequence, the values for the thermal stability score with HeLa Kyoto [4] (setting [5]) and with HeLa Kyoto [4] (cell cycle stage: mitosis) were -0.606 and -1.22, respectively.

With “MAPVEHVVADAGAFLRHAALQDIGKNIYTIREVVTEIRDKATRRRLAVLPYELRFKEPLPEYVRLVTEFSKKTGDYPSLSATDIQVLALTYQLEAEFVGVSHLKQEPQKVKVSSSIQHPETPLHISGFHLPYKPKPPQETEKGHSACEPENLEFSSFMFWRNPLPNIDHELQELLIDRGEDVPSEEEEEEENGFEDRKDDSDDDGGGWITPSNIKQIQQELEQCDVPEDVRVGCLTTDFAMQNVLLQMGLHVLAVNGMLIREARSYILRCHGCFKTTSDMSRVFCSHCGNKTLKKVSVTVSDDGTLHMHFSRNPKVLNPRGLRYSLPTPKGGKYAINPHLTEDQRFPQLRLSQKARQKTNVFAPDYIAGVSPFVENDISSRSATLQVRDSTLGAGRRRLNPNASRKKFVKKR [NOB1]”, the “solubility in G1/S (log2)” value in the series on HeLa Kyoto [1] was -0.457. The values for the melting temperature in the series on HeLa Kyoto [2] (cell cycle stage: G1/S) and in the series with HeLa Kyoto [2] (cell cycle stage: mitosis) were 50.3 °C and 49.8 °C, respectively. In addition, the “solubility change mitosis (log2)” value in the series with HeLa Kyoto [3] stood at 0.197. Further, the thermal stability score came to 0.938 with HeLa Kyoto [4] (setting [5]) and 0.387 in the series on HeLa Kyoto [4] (cell cycle stage: mitosis).

“MAPVHGDDSLSDSGSFVSSRARREKKSKKGRQEALERLKKAKAGEKYKYEVEDFTGVYEEVDEEQYSKLVQARQDDDWIVDDDGIGYVEDGREIFDDDLEDDALDADEKGKDGKARNKDKRNVKKLAVTKPNNIKSMFIACAGKKTADKAVDLSKDGLLGDILQDLNTETPQITPPPVMILKKKRSIGASPNPFSVHTATAVPSGKIASPVSRKEPPLTPVPLKRAEFAGDDVQVESTEEEQESGAMEFEDGDFDEPMEVEEVDLEPMAAKAWDKESEPAEEVKQEADSGKGTVSYLGSFLPDVSCWDIDQEGDSSFSVQEVQVDSSHLPLVKGADEEQVFHFYWLDAYEDQYNQPGVVFLFGKVWIESAETHVSCCVMVKNIERTLYFLPREMKIDLNTGKETGTPISMKDVYEEFDEKIATKYKIMKFKSKPVEKNYAFEIPDVPEKSEYLEVKYSAEMPQLPQDLKGETFSHVFGTNTSSLELFLMNRKIKGPCWLEVKSPQLLNQPVSWCKVEAMALKPDLVNVIKDVSPPPLVVMAFSMKTMQNAKNHQNEIIAMAALVHHSFALDKAAPKPPFQSHFCVVSKPKDCIFPYAFKEVIEKKNVKVEVAATERTLLGFFLAKVHKIDPDIIVGHNIYGFELEVLLQRINVCKAPHWSKIGRLKRSNMPKLGGRSGFGERNATCGRMICDVEISAKELIRCKSYHLSELVQQILKTERVVIPMENIQNMYSESSQLLYLLEHTWKDAKFILQIMCELNVLPLALQITNIAGNIMSRTLMGGRSERNEFLLLHAFYENNYIVPDKQIFRKPQQKLGDEDEEIDGDTNKYKKGRKKAAYAGGLVLDPKVGFYDKFILLLDFNSLYPSIIQEFNICFTTVQRVASEAQKVTEDGEQEQIPELPDPSLEMGILPREIRKLVERRKQVKQLMKQQDLNPDLILQYDIRQKALKLTANSMYGCLGFSYSRFYAKPLAALVTYKGREILMHTKEMVQKMNLEVIYGDTDSIMINTNSTNLEEVFKLGNKVKSEVNKLYKLLEIDIDGVFKSLLLLKKKKYAALVVEPTSDGNYVTKQELKGLDIVRRDWCDLAKDTGNFVIGQILSDQSRDTIVENIQKRLIEIGENVLNGSVPVSQFEINKALTKDPQDYPDKKSLPHVHVALWINSQGGRKVKAGDTVSYVICQDGSNLTASQRAYAPEQLQKQDNLTIDTQYYLAQQIHPVVARICEPIDGIDAVLIATWLGLDPTQFRVHHYHKDEENDALLGGPAQLTDEEKYRDCERFKCPCPTCGTENIYDNVFDGSGTDMEPSLYRCSNIDCKASPLTFTVQLSNKLIMDIRRFIKKYYDGWLICEEPTCRNRTRHLPLQFSRTGPLCPACMKATLQPEYSDKSLYTQLCFYRYIFDAECALEKLTTDHEKDKLKKQFFTPKVLQDYRKLKNTAEQFLSRSGYSEVNLSKLFAGCAVKS [POLA1]”: the “solubility in G1/S (log2)” value with HeLa Kyoto [1] is -0.19. Further, the results for the melting temperature with HeLa Kyoto [2] (cell cycle stage: G1/S) and in the series on HeLa Kyoto [2] (cell cycle stage: mitosis) were 49 °C and 50.1 °C, respectively. Further, the “solubility change mitosis (log2)” value with HeLa Kyoto [3] is -0.107. The results for the thermal stability score with HeLa Kyoto [4] (setting [5]) and in the series on HeLa Kyoto [4] (cell cycle stage: mitosis) were 1.03 and 3.37, respectively.

Consider “MAPWGKRLAGVRGVLLDISGVLYDSGAGGGTAIAGSVEAVARLKRSRLKVRFCTNESQKSRAELVGQLQRLGFDISEQEVTAPAPAACQILKEQGLRPYLLIHDGVRSEFDQIDTSNPNCVVIADAGESFSYQNMNNAFQVLMELEKPVLISLGKGRYYKETSGLMLDVGPYMKALEYACGIKAEVVGKPSPEFFKSALQAIGVEAHQAVMIGDDIVGDVGGAQRCGMRALQVRTGKFRPSDEHHPEVKADGYVDNLAEAVDLLLQHADK [LHPP]”, for which, in the series on HeLa Kyoto [1], the “solubility in G1/S (log2)” value came to 0.392. Besides, the melting temperature in the series with HeLa Kyoto [2] (cell cycle stage: G1/S) amounted to 56.5 °C; in the series with HeLa Kyoto [2] (cell cycle stage: mitosis), 55.5 °C. The “solubility change mitosis (log2)” value in the series with HeLa Kyoto [3] stood at 0.0085. In addition, the thermal stability score was -1.67 in the series on HeLa Kyoto [4] (setting [5]) and -2.15 in the series with HeLa Kyoto [4] (cell cycle stage: mitosis).

“MAQFVRNLVEKTPALVNAAVTYSKPRLATFWYYAKVELVPPTPAEIPRAIQSLKKIVNSAQTGSFKQLTVKEAVLNGLVATEVLMWFYVGEIIGKRGIIGYDV [ATP5L]”: the “solubility in G1/S (log2)” value in the series on HeLa Kyoto [1] is -0.573. Moreover, the values for the melting temperature in the series on HeLa Kyoto [2] (cell cycle stage: G1/S) and in the series with HeLa Kyoto [2] (cell cycle stage: mitosis) were 55 °C and 52.8 °C, respectively. Moreover, in the series on HeLa Kyoto [3], the “solubility change mitosis (log2)” value was determined as 0.0203. Besides, the thermal stability score in the series with HeLa Kyoto [4] (setting [5]) was -1.18; with HeLa Kyoto [4] (cell cycle stage: mitosis) it was -2.02.

The record behind these values is the supplement of paper PMC5998384.
